For orientation: EC50 means the concentration giving half of the maximal effect. Low values mean higher potency in that assay, high ones lower potency in that assay. A word on the Kd: it is the concentration at which binding is half-saturated. As a reminder, the koff is the first-order rate constant of dissociation. Usually kon stands for a measure of how fast the partners come together. A low value points to slow association.

For assay [1], the target named is T1, cell-surface human mesothelin (naturally expressed on OVCAR3, NCI-H226, CFPAC-1 and KB cells and on human … (human, UniProt Q13421 296-598)).
T1 construct: whole, on cells; Endogenously expressed on the cell lines; also called cell surface mesothelin
In words: flow cytometry on KB cells. As for the experimental part:
(§1) To test the ability of the antibodies to bind to cell surface mesothelin protein, the antibodies were incubated with four different mesothelin-expressing cells: OVCAR3 (ATCC Designation HTB-161, a human ovarian cancer cell line), NCI-H226 (ATCC Designation CRL-5826, a human lung-derived mesothelioma), CFPAC-1 (ATCC Designation CRL-1918, a human pancreatic cancer cell line), and KB (ATCC Designation CCL-17, a human oral carcinoma cell line). For the flow cytometry studies, the 3C10, 6A4 and 7B1 monoclonal antibodies were diluted with cold 1×PBS+0.1% BSA to 40 μg/mL. For the binding reaction, 50 μl of diluted antibody solution was added to a 50 μl cell suspension containing 4×10⁵ cells and the mixture was incubated on ice for 30-60 minutes. The cells were then washed three times with 1×PBS+0.1% BSA. A 1:50 dilution of R-phycoerythrin-labeled goat anti-human IgG Fγ F(ab)₂ fragment (Jackson ImmunoResearch Labs, Cat. #109-116-098) was added and the mixture was incubated on ice for 1 hour, followed by washing twice with cold 1×PBS+0.1% BSA. After the final wash, 200 μl of cold 1×PBS+0.1% BSA was added to each solution and analysis of antibody binding was carried out by FACS.
In general terms: In flow cytometry, cells or beads pass a laser one at a time.

Assay [2] has as its target T1, cell-surface human mesothelin …. In words: flow cytometry on OVCAR3 cells. As for the experimental part: as §1
For assay [3] the target is unchanged. In words: flow cytometry on CFPAC-1 cells. As for the experimental part: as §1
Assay [4] shares this target. The assay is described as follows: flow cytometry on NCI-H226 cells. As for the experimental part:
as §1

Assay [5] addresses T2, hu mesothelin-his fusion protein (human, UniProt Q13421 296-598, limits assumed).
T2 construct: domain: 40 kD portion of mesothelin; Soluble fusion protein secreted by transfected CHO cells; also called recombinant soluble mesothelin his-fusion protein; recombinant human mesothelin His-fusion protein; not shown: His tag at the C-terminus
The assay is described as follows: BIAcore SPR, antibody captured on protein G chip, mesothelin His-fusion protein injected. As for the experimental part: The binding of the 3C10, 6A4 and 7B1 antibodies to recombinant soluble mesothelin his-fusion protein was examined by BIAcore™ using a capture method. The 3C10, 6A4 and 7B1 antibodies each were separately captured on a protein G (Pierce, Rockford, Ill.) coated CM5 chip at high density (4000 RUs). The coating was performed based on the standard immobilization procedure recommended by the manufacturer. After the 3C10, 6A4 or 7B1 purified antibody was captured on protein G, a concentration series of recombinant human mesothelin His-fusion protein (450, 225, 112.5, 56, and 28 nM) was injected over the captured antibody for 2 minutes at a flow rate of […]. The antigen was allowed to dissociate for 8 minutes. Isotype controls were run on the chip, and the data used to subtract non-specific binding. All the analyses were carried out on a Biacore 2000 or 3000 surface plasmon resonance instrument, using BIAcore Control software v 4.01. Data was analyzed using BiaEvaluation v4.01 software.

The target of assay [6] is mesothelin on CHO-mesothelin cells (CHO cells transfected to express the 40 kD membrane-associated portion of … (UniProt Q13421 296-598, limits assumed)). The assay is described as follows: cell-based or functional assay.
mesothelin on CHO-mesothelin cells (CHO cells transfected to express the 40 kD membrane-associated portion of …, sequence (Q13421 other isoform, or with tags, fused parts or gaps limits assumed): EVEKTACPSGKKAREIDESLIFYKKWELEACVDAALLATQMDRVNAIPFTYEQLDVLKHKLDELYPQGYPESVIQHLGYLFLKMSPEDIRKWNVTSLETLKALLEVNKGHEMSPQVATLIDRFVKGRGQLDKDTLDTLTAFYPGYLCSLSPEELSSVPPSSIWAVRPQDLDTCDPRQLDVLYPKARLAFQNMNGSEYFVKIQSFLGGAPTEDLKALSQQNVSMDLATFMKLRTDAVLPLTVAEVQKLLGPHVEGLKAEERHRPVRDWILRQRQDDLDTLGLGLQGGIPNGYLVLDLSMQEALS

T2 sequence (Q13421 other isoform, or with tags, fused parts or gaps limits assumed): as above
T1 sequence (Q13421 other isoform, or with tags, fused parts or gaps limits assumed): as above

B1: human monoclonal antibody 7B1 (antibody, V domains shown)
VH: EVHLVESGGGLVQPGGSLRLSCAASGFTFSRYWMSWVRQAQGKGLEWVASIKQAGSEKTYVDSVKGRFTISRDNAKNSLSLQMNSLRAEDTAVYYCAREGAYYYDSASYYPYYYYYSMDVWGQGTTVTVSS
VL: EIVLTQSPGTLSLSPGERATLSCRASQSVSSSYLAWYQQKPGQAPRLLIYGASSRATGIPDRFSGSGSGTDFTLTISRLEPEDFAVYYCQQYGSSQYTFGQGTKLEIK
notes: also called 7B1 mAb; 1382.210.7B1.2.18
As for B1, the EC50 in assay [1] is 67.9 pM; in assay [2], 110 pM; in assay [3] it was 64.3 pM; in assay [4], 664 pM. In assay [5], this molecule came in with a Kd of 2400 pM. The molecule further came in with an off-rate constant (koff) in assay [5] of 0.000171 s⁻¹. The same molecule had a kon in assay [5] of 71500 M⁻¹ s⁻¹.

B2: human monoclonal antibody 3C10 (antibody, IgG1, V domains shown)
VH: QVYLVESGGGVVQPGRSLRLSCAASGITFSIYGMHWVRQAPGKGLEWVAVIWYDGSHEYYADSVKGRFTISRDNSKNTLYLLMNSLRAEDTAVYYCARDGDYYDSGSPLDYWGQGTLVTVSS
VL: EIVLTQSPATLSLSPGERATLSCRASQSVSSYLAWYQQKPGQAPRLLIYDASNRATGIPARFSGSGSGTDFTLTISSLEPEDFAVYYCQQRSNWPLTFGGGTKVEIK
notes: hybridoma-derived purified antibody; also called 3C10 mAb; 1382.210.3C10.1.6
For B2, the concentration giving a half-maximal response (EC50) came out at 144 pM in assay [1], 213 pM in assay [2], 193 pM in assay [3] and 197 pM in assay [4]. Besides, the equilibrium dissociation constant (Kd) in assay [5] worked out at 5800 pM. For the same molecule, in assay [5], the dissociation rate constant (koff) came to 0.000362 s⁻¹. In assay [5], the kon came to 63000 M⁻¹ s⁻¹.

B3: human monoclonal antibody 6A4 (antibody, IgG1, V domains shown)
VH: QVHLVESGGGVVQPGRSLRLSCVASGITFRIYGMHWVRQAPGKGLEWVAVLWYDGSHEYYADSVKGRFTISRDNSKNTLYLQMNSLRAEDTAIYYCARDGDYYDSGSPLDYWGQGTLVTVSS
VL: EIVLTQSPATLSLSPGERATLSCRASQSVSSYLAWYQQKPGQAPRLLIYDASNRATGIPARFSGSGSGTDFTLTISSLEPEDFAVYYCQQRSNWPLTFGGGTKVEIK
notes: also called 6A4 mAb; 1382.210.6A4.1.6
On to B3, for which, in assay [6], the “Antibody Dependent Cellular Cytotoxicity, EC50 (nM), CHO-mesothelin target cells” value was 63.1 nM. The EC50 is 182 pM in assay [1], 170 pM in assay [2], 193 pM in assay [3] and 156 pM in assay [4]. For the same molecule, binding in assay [5] was characterised by a dissociation constant (Kd) of 5900 pM. In assay [5], this molecule yielded a dissociation rate constant (koff) of 0.000377 s⁻¹. The on-rate constant (kon) in assay [5] was 63900 M⁻¹ s⁻¹.

The values above are taken from patent US20110262448A1 (Bristol-Myers Squibb, published 2011).
